Results taken from patent publication US20240342704A1 (BERKELEY LIGHTS, published 2024).

Target: T1, HLA-A*02:01 MHC Class I complex (biotinylated) (human, biotinylated)
T1 construct: The MHC molecule as the partner of the peptide in the groove; It was captured on streptavidin DynaBeads; also called pHLA; pMHC
Test: pMHC on streptavidin beads held in T cell culture media at 37 C for 0-48 h; W6/32-APC MFI by flow cytometry fitted to an exponential decay
Procedure: To wells of a 96-well, round-bottom microplate, 0.2 mL of T Cell Culture Media (Advanced RPMI, 10% Human AB Serum, 1 mM GlutaMax) was added and equilibrated to 37° C. in a standard tissue culture incubator. To three wells each, four microliters of each pHLA-beads was added to a well. The process of adding beads to wells was repeated at time intervals resulting in beads that were held in the media at 37° C. for 48, 32, 24, 16, 8, 4, 2, and 1 hr. The plate was centrifuged at 400 g for 5 minutes, and the media removed by flicking the plate. A sample of beads held at 4° C. for the duration of the time course was then added to three wells to create the 0 hr time point.
An APC-conjugated, conformationally sensitive antibody which only recognizes pMHC molecules in the folded, complex conformation (Clone W6/32, Biolegend) was then added to each well. The antibody was diluted 50-fold from the manufacturer stock into Assay Buffer, and 0.05 mL of antibody mixture was added to each well. […]
Antibody binding to the beads was then detected on a FACSCelesta with High-Throughput Sampler (BD Biosciences). […] Approximately 25,000 bead events were recorded for each sample. The Median Fluorescence Intensity (MFI) in the APC channel for the pHLA-beads in each sample was then recorded. […] The half-lives for the pHLA complexes were then calculated from the fitted decay constant.

half-life	Binder
~17 h	SLYSYFQKV (Synthetic 9-mer peptide, dissolved in DMSO and diluted in PBS for the exchange reaction; also called Immunogenic SLC45A2-derived peptide; SLC45A2 antigen) [SLC45A2-derived peptide antigen SLYSYFQKV (SEQ ID NO: 5)]
~0.5 h	SLLPIMWQLY (Synthetic 10-mer peptide; also called Non-Immunogenic TCL1-derived peptide) [TCL1-derived peptide antigen SLLPIMWQLY (SEQ ID NO: 6)]
